The target of one assay is HLA-B*51:01. The assay is described as follows: IEDB peptide-MHC binding, purified MHC/competitive/radioactivity; filed as Kd, often an IC50 or EC50 that approximates it; ≥ and ≤ were set here for values at or beyond the usual limits of such assays.
A further assay addresses HLA-B*07:02. The assay is described as above.
Another assay deals with HLA-B*35:01. The assay is described as above.
A further assay has as its target HLA-B*53:01. Described as above.
The target in a further assay is HLA-B*54:01. The description is as above.
The target of a further assay is HLA-A*24:02. The assay is described as follows: IEDB peptide-MHC binding, purified MHC/competitive/fluorescence; ≥ and ≤ were set here for values at or beyond the usual limits of such assays.
The target in assay [1] is HLA-A*02:01. The assay is described as above.
For another assay, the target named is HLA-A*01:01. The assay is described as follows: IEDB peptide-MHC binding, purified MHC/competitive/radioactivity; filed as Kd, often an IC50 or EC50 that approximates it; ≥ and ≤ were set here for values at or beyond the usual limits of such assays.
The target of the next assay is HLA-A*30:01. The description is as above.
For a further assay, the target named is HLA-A*26:01. Described as above. As to conditions: source organism: Dengue virus 3 Martinique/1243/1999.
In the next assay the target is HLA-A*31:01. The description is as above. The conditions noted are these: source organism: Vaccinia virus WR.
Another assay concerns the target HLA-A*68:01. The assay is described as above. As to conditions: source organism: Vaccinia virus WR.
The next assay concerns the target HLA-A*33:01. The description is as above. The conditions noted are these: source organism: Vaccinia virus WR.
The next assay has as its target HLA-A*11:01. The assay is described as above. As to conditions: source organism: Vaccinia virus WR.
Another assay addresses HLA-A*03:01. The assay is described as above.
Assay [2] concerns the target HLA-A*02:01. The assay is described as follows: IEDB peptide-MHC binding, purified MHC/competitive/fluorescence; filed as Kd, often an IC50 or EC50 that approximates it; ≥ and ≤ were set here for values at or beyond the usual limits of such assays.
The target in another assay is HLA-A*02:03. The assay is described as follows: IEDB peptide-MHC binding, purified MHC/competitive/radioactivity; filed as Kd, often an IC50 or EC50 that approximates it; ≥ and ≤ were set here for values at or beyond the usual limits of such assays. As to conditions: source organism: Vaccinia virus WR.
A further assay deals with HLA-A*02:06. Described as above. As to conditions: source organism: Vaccinia virus WR.
The next assay deals with HLA-A*02:02. The assay is described as above. The conditions noted are these: source organism: Vaccinia virus WR.
Where [3] appears, read: source organism: Lassa virus Josiah.
The mark [4] stands for this setting: source organism: Sudan ebolavirus.
[5] abbreviates: source organism: Vaccinia virus WR.
The mark [6] stands for this setting: source organism: SARS coronavirus Tor2.
Where [7] appears, read: source organism: Triticum aestivum.
[8] abbreviates: source organism: Mammarenavirus machupoense.
The mark [9] stands for this setting: source organism: Zaire ebolavirus.
[10] abbreviates: source organism: Dengue virus 2 Jamaica/1409/1983.
Where [11] appears, read: source organism: Dengue virus 1 Brazil/97-11/1997.
Where [12] appears, read: source organism: Vaccinia virus.

Bounds are passed on as bounds.

Broadly, the Kd is the concentration at which binding is half-saturated. As a reminder, the IC50 is the concentration that gives 50% inhibition. A low value points to higher potency.

Turning to WPYIASRTSI, the dissociation constant (Kd) in the assay with HLA-B*51:01 (setting [3]) is 0.0458 µM; with HLA-B*07:02 (setting [3]), 55.6 nM; with HLA-B*35:01 (setting [3]) it was no less than 72 µM; with HLA-B*53:01 (setting [3]) it was no less than 23.2 µM; with HLA-B*54:01 (setting [3]), 714 nM.
ITTAVKTVL: the values for the IC50 in the assay with HLA-A*24:02 (setting [4]) and with HLA-A*02:01 [1] (setting [4]) were 37.4 µM and 55.3 µM, respectively.
As for TPNYMKLLV, the equilibrium dissociation constant (Kd) with HLA-B*51:01 (setting [5]) was no less than 77.5 µM; with HLA-B*07:02 (setting [5]), 51.3 nM; in the assay with HLA-B*35:01 (setting [5]), 0.00841 µM; in the assay with HLA-B*54:01 (setting [5]), 30.7 nM.
Take LPFYSNVTGF: the Kd with HLA-B*51:01 (setting [6]) amounted to 0.861 µM; with HLA-B*07:02 (setting [6]), 563 nM; in the assay with HLA-B*35:01 (setting [6]), 0.0115 µM; with HLA-B*53:01 (setting [6]) it was 0.0798 µM; with HLA-B*54:01 (setting [6]) it was 132 nM.
For QPQEQVPLV, the dissociation constant Kd was 4.83 µM with HLA-B*51:01 (setting [7]); no less than 77500 nM with HLA-B*07:02 (setting [7]); no less than 23.7 µM with HLA-B*35:01 (setting [7]); no less than 36.6 µM in the assay with HLA-B*53:01 (setting [7]); 12100 nM with HLA-B*54:01 (setting [7]).
With NPKASTISWM, the Kd was no less than 69.6 µM with HLA-B*51:01 (setting [5]); 94.7 nM with HLA-B*07:02 (setting [5]); 7.66 µM with HLA-B*35:01 (setting [5]); 8.15 µM with HLA-B*53:01 (setting [5]); no less than 35900 nM with HLA-B*54:01 (setting [5]).
For MLNNSLYYM, the dissociation constant (Kd) was no less than 36.7 µM with HLA-B*51:01 (setting [8]); no less than 77400 nM with HLA-B*07:02 (setting [8]); 8.71 µM with HLA-B*35:01 (setting [8]); 9.77 µM in the assay with HLA-B*53:01 (setting [8]); no less than 36700 nM in the assay with HLA-B*54:01 (setting [8]).
Turning to FLGGNEVGKTY, the dissociation constant (Kd) with HLA-A*01:01 (source organism: Homo sapiens) was found to be 198 nM.
As to YHKILTAGL, the 50% inhibitory concentration (IC50) in the assay with HLA-A*24:02 (setting [9]) is 7.41 µM. This counts as single-digit micromolar.
With NSRSTSLSV, in the assay with HLA-A*30:01 (setting [10]), the Kd is 14.9 nM.
On to HTIENSTAN, for which, in the assay with HLA-A*26:01, the dissociation constant (Kd) came out at 6.99 µM.
For RWGFRSGVP, the IC50 in the assay with HLA-A*24:02 (setting [4]) came out at 16.7 µM; with HLA-A*02:01 [1] (setting [4]) it was 16.4 µM.
On to TFRERYSYK, for which the dissociation constant Kd worked out at 14.6 nM with HLA-A*31:01; 127 nM with HLA-A*68:01; 28.8 nM in the assay with HLA-A*33:01; 43.7 nM with HLA-A*11:01; 73.6 nM in the assay with HLA-A*03:01 (setting [5]); 0.885 nM in the assay with HLA-A*30:01 (setting [5]).
With ITFLRVLSIP, the dissociation constant Kd with HLA-A*30:01 (source organism: Dengue virus 4 Philippines/H241/1956) came out at 828 nM.
With QGLIQYPTA, the IC50 in the assay with HLA-A*24:02 (setting [9]) was found to be 12.6 µM; in the assay with HLA-A*02:01 [1] (setting [9]), 46.1 µM.
For LGADLDAVI, the IC50 is 7.66 µM in the assay with HLA-A*24:02 (setting [5]) and 20.5 µM with HLA-A*02:01 [1] (setting [5]).
Consider KTSFHIIFL, for which, in the assay with HLA-A*30:01 (setting [5]), the Kd was determined as 25 nM.
As to YTDRKWCFD, the Kd in the assay with HLA-A*01:01 (source organism: Dengue virus 3 Martinique/1243/1999) came to 597 nM.
As for EWAFWETKK, the 50% inhibitory concentration (IC50) with HLA-A*24:02 (setting [9]) amounted to 5.98 µM.
As for RDGVKRLEE, in the assay with HLA-A*24:02 (setting [9]), the half-maximal inhibitory concentration (IC50) is no less than 89.8 µM.
On to ITVIDLDPIP, for which, in the assay with HLA-A*30:01 (setting [10]), the Kd worked out at 295 nM.
Turning to MSVISNPSK, the Kd with HLA-A*30:01 (setting [5]) is 19.7 nM.
GQLASMVKL had an equilibrium dissociation constant (Kd) with HLA-A*02:01 [2] (source organism: Escherichia coli 536) of 78.2 nM.
Consider AVSRGSAKLR, for which the Kd with HLA-A*30:01 (setting [10]) turned out to be 1210 nM.
For CTKHSKDFA, in the assay with HLA-A*30:01 (setting [5]), the Kd amounted to 231 nM.
As for HIKTIAVSV, the equilibrium dissociation constant (Kd) stood at 9.6 nM in the assay with HLA-A*02:03, 1550 nM with HLA-A*02:06, 3.08 µM in the assay with HLA-A*02:02 and 66.8 nM with HLA-A*30:01 (setting [5]).
Turning to RCLKPVILK, the Kd with HLA-A*03:01 (setting [11]) stood at 156 nM; with HLA-A*30:01 (setting [11]), 220 nM.
Take FTTNIWLKL: the Kd with HLA-A*01:01 (setting [10]) stood at 1330 nM.
For the sequence QVHAEQGLI, in the assay with HLA-A*24:02 (setting [9]), the half-inhibitory concentration (IC50) amounted to 47 µM.
With SINVEYRFL, the IC50 with HLA-A*24:02 (setting [5]) is 27.7 µM; with HLA-A*02:01 [1] (setting [5]), 27.2 µM.
For the sequence IFGNLSPET, the IC50 in the assay with HLA-A*24:02 (setting [12]) was 14 µM; with HLA-A*02:01 [1] (setting [12]), 47.3 µM.
For KLIIDREVV, the IC50 with HLA-A*24:02 (source organism: Vaccinia virus Copenhagen) was no less than 137 µM. The Kd with HLA-A*02:01 [2] (setting [5]) came to 1790 nM.
On to AAMYQYIFL, for which the equilibrium dissociation constant (Kd) with HLA-A*30:01 (setting [5]) was 7.53 nM.
SFFVWVIIL gave a half-inhibitory concentration (IC50) with HLA-A*24:02 (setting [4]) of no less than 72.5 µM.

The values above are taken from the Immune Epitope Database (IEDB).
